This note sets out measurements from patent US20240166738A1 (Alector, published 2024).

B1: TM-63 (antibody, V domains shown)
VH: QVQLQQPGAELVKFGASVKLSCKASGYTFTSFWMHWVKQRPGQGLEWIGNIDPSDSETHYSQKFKDKATLTVDRSSNTAYIQLSSLTSEDSAVYYCARSSNWDNFDYWGQGTTVTVSS
VL: DIVMTQASPSVSVTPGESVSISCRSSQSLLHVNGNTYLYWFLQRPGRSPRLLIYRMSNLASGVPDRFSGSGSGTAFTLRISRVEAEDVGVYYCMQHLQYPFSFGSGTKLEMK
B2: TM-35 (antibody, V domains shown)
VH: QVQLQQSGPELVRPGTSVKISCKAPGYTFTRHWMQWVRQRPGQGLEWIGEILPGSNNIYYNEKVKGKATLTVDTSSSTSYMQLSSLTSEDSAVYFCARSLYDYDGVFAYWGQGTLVTVSA
VL: DVLMTQIPLSLPVSLGDQASISCRSSQSIVHRNGNTYLEWYLQKPGQSPKLLIYKVSNRFSGVPDRFSGSGSGTDFTLKISRVEAEDLGVYYCFQGSHVPYTFGGGTKLEIK
B3: TM-60 (antibody, V domains shown)
VH: QVQLQQSGPELVKPGASVKLSCKASGYTFTSYDINWVKQRPGQGLEWIGWIYPRDGNTQYIEKLKGKATLTVDTSSSTAYMELHSLTSEDSAVYFCARWIFYAMDYWGQGTSVTVSS
VL: DVLMTQTPLSLPVSLGDQASISCRSSQSIVHGNGNTYLEWYLQKPGQSPKLLIYKVSNRFSGVPDRFSGSGSGTDFTLKISRVEAEDLGVYYCFQGSHLPYTFGGGTKLEIK
B4: TM-32 (antibody, V domains shown)
VH: EVQLQQSGAELVRPGASVRLSCIASGFNIKDYYMYWVKQRPEQGLEWIGRIDPEDGDTEYVPKFQGKATMTADTSSNTAYLQLSSLTSEDIGVYYCTTRTWDLYYAVDNWGQGTSVTVSS
VL: DVLMTQTPLSLPVSLGDQASISCRSSQNIVHSNGNTYLEWYLQKPGQSPKLLIDKVSNRFSGVPDRFSGSGSGTDFTLKISRVEAEDLGIYYCFQGSHVPFTFGSGTKLEIK
B5: TM-48 (antibody, V domains shown)
VH: QVQLQQSGPELVKPGASVKLSCKASGYTFTSYDINWVKQRPGQGLEWIGWIYPRDGNTQYIEKLKGKATLTVDTSSSTAYMELHSLTSEDSAVYFCARWIFYAMDYWGQGTSVTVSS
VL: DVLMTQTPLSLPVSLGNQASISCRSSQSIVHGNGNTYLEWYLQKPGQSPKLLIYKVSNRFSGVPDRFSGSGSGTDFTLKISRVEAEDLGVYYCFQGSHLPYTFGGGTKLEIK
B6: TM-21 (antibody, V domains shown)
VH: EVQLVESGGGLVKPGGSLKLSCAASGFTFSNYAMSWVRETPEKRLEWVAFISDGGGYIYYADNVKDRFTISRDNAKNNLYLQMRHLKSEDTAMYYCARDGGTGFTYWGQGTLVTVSV
VL: DIVMTQAAFSNPVTLGTSASISCRSSKSLLHSNGITYLFWYLQKPGQSPQLLIYQMSNLASGVPDRFSSSGSGTDFTLRISRVEAEDVGVYYCVQNLELPYTFGGGTKLEIK
B7: TM-29 (antibody, V domains shown)
VH: QVQLRQSGAELVRPGASVKLSCKASGYTFTDYYINWVKQRPGQGLEWIARIYPGSGYTYYNEKFKGKATLTAEGSSNTAYMQLSSLTSEDSAVYFCANHYTNPFAYWGQGTLVTVSA
VL: DIVMTQAAFSNPVTLGTSASISCRSSKSLLHYNGITYLYWYLQKPGQSPQLLIYQMSNLASGVPDRFSSSGSGTDFTLRISRVEAEDVGVYYCAQNLELPYTFGGGTKLEIK
B8: TM-25 (antibody, V domains shown)
VH: EVQLVESGGDLVKPGGSLRLSCAASGFTFSGYGMSWIRQTPDKRLEWVATISSGGRYTVYPDSVKGRFTMSRDNVKNTLYLQMSSLKSEDTALYYCARDNFYSYAMDYWGLGTSVTVSA
VL: DIVMTQAAFSNPVTLGTSASISCRSSKSLLHSNGITYLFWYLQKPGQSPQLLIYQMSNLASGVPDRFSSSGSGTDFTLRISRVEAEDVGVYYCAQNLELWTFGGGTKLEIK
B9: TM-72 (antibody, V domains shown)
VH: QVQLQQPGAELVKPGTSVKLSCKASGSTFTNYWMHWVMQRPGQGLEWIGNIDPSDSDTHYNQKFKDRAKLTVDKSSSTAYMQLSGLTSEDSAVYYCARSRGGYYDYGEAMDYWGQGTSVTVSS
VL: DIVMTQAAPSVPVTPGESVSISCRSSKSLLHTNGNTYLFWFIQRPGQSPHLLIYRKSNLASGVPDRFSGSGSGTAFTLRISRVEAEDVGVYYCMQHLEYPFTFGSGTKLEIK
B10: TM-78 (antibody, V domains shown)
VH: QVQLQQPGAELVKPGASVKLSCKASGYTFTNHWMHWVRQRPGQGLEWIGNIDPSDSDTHYNHKFKDKATLIVDKSSSTAYLQLSSLTSEDSAVFYCARSRGGYYDYGEAMDYWGQGTSVTVSS
VL: DIVMTQATPSIPVTPGESVSISCRSSKSLLHVNGNTYLFWFLQRPGQSPQLLIYRMSNLASGVPDRFSGSGSGTAFTLRISRVEAEDVGVYYCMQHLEYPFTFGSGTKLEIK
B11: TM-64 (antibody, V domains shown)
VH: QVQLQQPGAELVKPGASVKLSCKASGYTFTSYWMHWVKQRPGHGLEWIGNIDPSDSDTHYNQNFRGKATLTVDKFSTTAYMHLSSLTSEDSAVYYCARSRGGTYDYGEAMDYWGQGTSVTVSS
VL: DIVMTQAAPSVPVTPGESVSISCRSSKSLLHTNGNTYLFWFLQRPGRSPQLLIYRMSNLASGVPDRFSGSGSGTAFTLRISRVEAEDVGVYYCMQHLEYPFTFGSGTKLEIK
B12: TM-10 (antibody, V domains shown)
VH: QVQLQQSGAELVKPGASVKISCKGSGYAFSSYWMNWVKQRPGKGLEWIGQIYPGDGDTNYNGKFKGKATLTADKSSTTAYIHLSSLTSEDSAVYFCARWGHYDEAMDDWGQGTSVTVSS
VL: DVVMTQTPLSLPVSLGDQASISCRSSQSLVHSNGKTYLHWYVQKPGQSPKLLIYKISNRFSGVPDRFSGSGSGTDFTLKISRVEAEDLGVYFCSQITHVPWTFGGGTKLESK
B13: TM-11 (antibody, V domains shown)
VH: QVQLKQSGPGQVQPSQSLSITCTVSGFSLSDYGVHWVRQSPGKGLEWLGVIWNNGNTDYNAAFISRLSINKDNSKSQVFFKMTSLQADDTAIYYCVRSLRPLHFDYWGQGTTVTVSS
VL: DIVMTQSPSSLTMSVGQKVTMHCKSSQSLLNSNNLQNYLAWYQQKPGQSPTLLVYFASIRESGVPDRFIGSGSGTDFTLTISSVQAEDLADYFCQQHYNTPFTFGSGTKLEIR
B14: TM-24 (antibody, V domains shown)
VH: QVQLKQSGPGQVQPSQSLSITCTVSGFSLSDYGVHWVRQSPGKGLEWLGVIWNNGNTDYNAAFISRLSINKDNSKSQVFFKMTSLQADDTAIYYCVRSLRPLHFDYWGQGTTVTVSS
VL: DIVMTQSPSSLTMSVGQKVTMNCKSSQSLLNSNNQQNYLAWYQQKPGQSPKLLVYFASIRESGVPDRFIGSGSGTDFTLTINSVQAEDLADYFCQQHYSTPFTFGSGTKLEIR
B15: TM-61 (antibody, V domains shown)
VH: QVQLQQSGAELAKPGASVKLSCKASGYTFTNYWMNWVKQRPGQGLEWIGYINPSSDYTKYNQNFKDKATLTADKSSSTAYMQLNSLTYEDSAVYYCTRWGGSRSYWYFDVWGAGTTVTVSS
VL: DIVMTQSPSSLSASAGEKVTMSCKSSQSLLNSGNQKNYLAWYQQKPGQSPKLLIYGASTRESGVPDRFTGSGSGTDFTLTISSVQAEDLAVYYCQNDSNYPFTFGGGTKLEMK
B16: TM-45 (antibody, V domains shown)
VH: QVQLQQSGAELAKPGASVKLSCKASGYTFTNYWMHWVKKRPGQGLEWIGYINPSSGYTKYNQKFKDKATLTADKSSNTAYMQLSSLTYEDSAVYYCTREGGSISDWYFDVWGTGTTVTVSS
VL: DIVMTQAAPSLPVTPGESVSISCRSSKSLLHSNGNTYLYWFLQRPGQSPQLLIYRMSNLASGVPDRFSGSGSGTAFTLRISRVEAEDVGVYYCMQHLEYPYTFGGGTKLEIK
B17: TM-86 (antibody, V domains shown)
VH: EVQLQQSGPVLVKPGASVKMSCKASGYTFTDYYIHWVKQSHGRSLEWIGVISPYNDNTNYNQKFKGKATLTVDKSSSTAYMELNSLTSEDSAVYYCVRTYYSNYFDYWGQGTTLTVSS
VL: DIVMTQSPSSLSVSAGEKVTMSCKSSQSLLNSGNQKNYLAWHQQRPGQPPKLLIYGASTRESGVPDRFTGSGSGTEFTLTISSVQAEDLAVYYCQNDHSYPLTFGAGTKLELK
B18: TM-28 (antibody, V domains shown)
VH: EVQLQQSGPVLVKPGPSVKISCMASVFTFNDYYIHWVKQSHGKSLEWIGLVYPYNGGTNYNQNFKGKATLTVDTSSRTAYMELNSLTSEDSAVYYCARSYFSNPIGYWGQGTLVTVSE
VL: DIVMTQSPSSLSVSVGEKVTVSCKSSQSLLNSGNQKNYLAWYQQKPGQPPKLLIYGASTRESGVPDRFTGSGSGTDFTLTISSVQAEDLAVYYCQNDHSYPLTFGAGTKLELK
B19: TM-59 (antibody, V domains shown)
VH: QVQLQQSGAELAKPGASVKLSCKASGYTFISYWMHWVKQRPGQGLEWIGYVNPSSGYTKNNQKFKDKATLTADKSSSTAYMQLSSLTYEDSAVYYCAREGGSISDWYFDVWGTGTTVTVSS
VL: DIVMTQAAPSVPVTPGESVSISCRSSKSLLHSNGNTYSYWFLQRPGQSPQLLIYRMSNLASGVPDRFSGSGSGTAFTLRISRVEAEDVGVYYCMQHLEYPYTFGGGTKLEIK
B20: TM-37 (antibody, V domains shown)
VH: QVQLQQSGAELAKPGASVKLSCKASGYTFTSYWMHWVKQRPGQGLEWIGYVNPSSGYTKNNQKFKDKVTLTADKSSSTAYMQLSSLTYEDSAVYYCAREGGSISDWYFDVWGTGTTVTVSS
VL: DIVMTQAAPSVPVTPGESVSISCRSSKSLLHSNGNTYSYWFLQRPGQSPQLLIYRMSNLASGVPDRFSGSGSGTAFTLRISRVEAEDVGVYYCMQHLEYPYTFGGGTKLEIK
B21: TM-76 (antibody, V domains shown)
VH: QVTLKESGPGILQPSQTLSLTCSFSGFSLSTSGMGVSWIRKPSGKGLEWLAHIFWDDDKRYNLFLKSRLTVSKDTSSNQVFLMITSVDTTDTATYYCARMGRQRDYFDYWGQGTSLTVSS
VL: QIILTQSPAIMSASLGEEITLTCSASLSISYVHWYQQKSGASPKLLIYGTSNLASGVPSRFSGSGSGTFYSLTISSVEAEDAADYYCHQWSIYRTFGGGTKLEMK
Note: test concentration or dose not given here.

In this assay the target is human TMEM106B (human, UniProt Q9NUM4 2-274). Kind of assay: cell-based or functional assay.
Regarding B1, the “% Protection from CPE” value worked out at 89.3%.

Consider B2, for which the “% Protection from CPE” value was 90.4%.

Regarding B3, the “% Protection from CPE” value was found to be 94.2%.

With B4, the “% Protection from CPE” value stood at 105%.

For B5, the “% Protection from CPE” value came to 89.3%.

On to B6, for which the “% Protection from CPE” value stood at 93.7%.

B7: the “% Protection from CPE” value came to 92.6%.

For the molecule B8, the “% Protection from CPE” value came out at 106%.

As to B9, the “% Protection from CPE” value came to 92.7%.

Consider B10, for which the “% Protection from CPE” value came out at 91.1%.

For the molecule B11, the “% Protection from CPE” value came out at 89.3%.

As for B12, the “% Protection from CPE” value stood at 93.3%.

Take B13: the “% Protection from CPE” value was determined as 93.9%.

B14: the “% Protection from CPE” value came out at 8.4%.

B15: the “% Protection from CPE” value came to 94.1%.

With B16, the “% Protection from CPE” value was found to be 32.6%.

With B17, the “% Protection from CPE” value is 90.5%.

As for B18, the “% Protection from CPE” value was determined as 85.4%.

For the molecule B19, the “% Protection from CPE” value was 92.3%.

For the molecule B20, the “% Protection from CPE” value was 90.2%.

Regarding B21, the “% Protection from CPE” value was 89.2%.
